pKd: −log10 of the molar value.

These results are taken from patent publication US20150240222A1.

Experiment [1] concerns the target FITC-casein. The experiment is described as follows: fluorescence polarization, 6 nM FITC-casein with 0-5 uM Hsp104, 2 mM ATPgS, 25 C. For orientation: Fluorescence polarisation rises when a labelled molecule tumbles more slowly, as on binding a larger partner.
The target of experiment [2] is FITC-casein. The experiment is described as follows: cell-based or functional assay.

The term pKd denotes the Kd on a negative log10 scale, so that one unit is a factor of ten. A low value points to a high Kd. Regarding Hsp104WT (from UniProt P31539 1-908), in the experiment with FITC-casein [1], the negative logarithm of the Kd (pKd) is 7.19. Regarding HAPWT (from UniProt P31539 1-908), in the experiment with FITC-casein [2], the Km of FITC-casein degradation (translocation into ClpP), initial rates against FITC-casein concentration turned out to be 2.88 µM. The substance Hsp104A503V (from UniProt P31539 1-908) gave a pKd with FITC-casein [1] of 7.10. As to HAPA503V (from UniProt P31539 1-908), the Km of FITC-casein degradation (translocation into ClpP), initial rates against FITC-casein concentration with FITC-casein [2] amounted to 1.29 µM.
